According to patent US20190359986A1 (ROCHE INNOVATION CENTER COPENHAGEN A S, published 2019):
Changes are numbered by the printed parent chain.

Target: TNF-α
Test: cell-based or functional assay

B1: mouse TNFR2 Δ7 (SSO-induced, in serum of SSO 3274 or SSO 3305 treated mice) (receptor)
chain: VPAQVVLTPYKPEPGYECQISQEYYDRKAQMCCAKCPPGQYVKHFCNKTSDTVCADCEASMYTQVWNQFRTCLSCSSSCTTDQVEIRACTKQQNRVCACEAGRYCALKTHSGSCRQCMRLSKCGPGFGVASSRAPNGNVLCKACAPGTFSDTTSSTDVCRPHRICSILAIPGNASTDAVCAPESPTLSAIPRTLYVSQPEPTRSQPLDQEPGPSQTPSILTSLGSTPIIEQSTKGGISLPIEKPSCLQRDAKVPHVPDEKSQDAVGLEQQHLLTTAPSSSSSSLESSASAGDRRAPPGGHPQARVMAEAQGFQEARASSRISDSSHGSHGTHVNVTCIVNVCSSSDHSSQCSSQASATVGDPDAKPSASPKDEQVPFSQEECPSQSPCETTETLQSHEKPLPLGVPDMGMKPSQAGWFDQIAVKVA
EC50, L929 cytotoxicity assay; SSO 3274 treated mice serum: 0.8 ng/mL
EC50, L929 cytotoxicity assay; SSO 3305 treated mice serum: 0.6 ng/mL

B2: human TNFR2 Δ7 without His-tag, from clone 1230-1 transfected HeLa cells (receptor)
chain: LPAQVAFTPYAPEPGSTCRLREYYDQTAQMCCSKCSPGQHAKVFCTKTSDTVCDSCEDSTYTQLWNWVPECLSCGSRCSSDQVETQACTREQNRICTCRPGWYCALSKQEGCRLCAPLRKCRPGFGVARPGTETSDVVCKPCAPGTFSNTTSSTDICRPHQICNVVAIPGNASMDAVCTSTSPTRSMAPGAVHLPQPVSTRSQHTQPTPEPSTAPSTSFLLPMGPSPPAEGSTGDFALPVEKPLCLQREAKVPHLPADKARGTQGPEQQHLLITAPSSSSSSLESSASALDRRAPTRNQPQAPGVEASGAGEARASTGSSDSSPGGHGTQVNVTCIVNVCSSSDHSSQCSSQASSTMGDTDSSPSESPKDEQVPFSKEECAFRSQLETPETLLGSTEEKPLPLGVPDAGMKPS
EC50, L929 cytotoxicity assay; extracellular media from 1230-1 transfected HeLa cells: 1.4 ng/mL

B3: human TNFR2 Δ7 with His-tag, from clone 1319-1 transfected HeLa cells (receptor)
chain: LPAQVAFTPYAPEPGSTCRLREYYDQTAQMCCSKCSPGQHAKVFCTKTSDTVCDSCEDSTYTQLWNWVPECLSCGSRCSSDQVETQACTREQNRICTCRPGWYCALSKQEGCRLCAPLRKCRPGFGVARPGTETSDVVCKPCAPGTFSNTTSSTDICRPHQICNVVAIPGNASMDAVCTSTSPTRSMAPGAVHLPQPVSTRSQHTQPTPEPSTAPSTSFLLPMGPSPPAEGSTGDFALPVEKPLCLQREAKVPHLPADKARGTQGPEQQHLLITAPSSSSSSLESSASALDRRAPTRNQPQAPGVEASGAGEARASTGSSDSSPGGHGTQVNVTCIVNVCSSSDHSSQCSSQASSTMGDTDSSPSESPKDEQVPFSKEECAFRSQLETPETLLGSTEEKPLPLGVPDAGMKPSKGQDNSADIQHSGGRSSLEGPRFEGKPIPNPLLGLDSTRTGHHHHHH
modifications: variably glycosylated
EC50, L929 cytotoxicity assay; extracellular media from 1319-1 transfected HeLa cells: 1.7 ng/mL

B4: human TNFR2 Δ7 with glutamine 352 changed to arginine, from clone 1138-5 transfected HeLa cells (receptor)
chain: B2 chain with Q330R
EC50, L929 cytotoxicity assay; extracellular media from 1138-5 transfected HeLa cells: 1.8 ng/mL
